The supplement of paper PMC9170038

System: MS2 coat protein
Experiment: apparent KD of MS2 coat protein; designed switch direction (-1 OFF switch, 1 ON switch): -1; higher = weaker reporter binding
In short: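 SNAP-549-labelled MS2 coat protein was titrated, doubling from 0.7 or 1.5 nM to 3 µM, over designed RNA switches transcribed on Illumina chips by stalled E. coli RNA polymerase. Runs were done without input, with 200 uM small-molecule ligand, or with an oligonucleotide input. Apparent KD is the per-design median over clusters of curve-fitted normalised fluorescence.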

[1] = Eterna round: R95, input ligand: FMN 200 uM
[2] = Eterna round: R95, input ligand: microRNA oligo, concentration not stated
[3] = Eterna round: R95, input ligand: none
[4] = input ligand: microRNA oligo, concentration not stated

Sequence	apparent KD of MS2 coat protein [2] [nM]	apparent KD of MS2 coat protein (input ligand: FMN 200 uM) [nM]	apparent KD of MS2 coat protein (input ligand: none) [nM]	also measured
UCAAGUUUUUUGUUUUUUAACAUGAGGAUCACCCAUGUAUUUUUAUAGUAUGUGUGAAUAAGAUCUCUUUGUCUUAU [JR_SV3TOV1_Sub098] (puzzle: Sensor v3, turn-off variant 1)	149	–	–	apparent KD of MS2 coat protein [1]: 46.6 nM; apparent KD of MS2 coat protein [3]: 49.5 nM
UCACGGGACUAAGGAUAUACAUGAACUAUUAUUGUAGAAGGUAGAAUGUUAGAUUAUACACUAAACAUGAGGAUCACCCAUGUU [JR_ExcNG1_Sub094] (Eterna round: R96, puzzle: Exclusion NG 1)	–	–	–	apparent KD of MS2 coat protein [4]: 15.9 nM
UCACGGGAUUGAGGAUAUAUUUAAAUUUUUACAAUAGAAGGCAAAUUUUUAGUUUUUUCACUUUACAUGAGGAUCACCCAUGUU [JR_ExcBG1_Sub082] (Eterna round: R96, puzzle: Exclusion NG 1)	–	–	–	apparent KD of MS2 coat protein [4]: 19.6 nM
UCAUAACAUGAGGAUCACCCAUGUGAGGAUAUGAUACUAUGUACUUCGGUACAUAGUAUCAGAAGGCACAUACU [Ex1-3: 11] (puzzle: Exclusion 1)	88.9	–	–	–
UCAUACGGUGAGGAUAUCUCCACUAAAGUGUGUAGAGAAGGCGCUACAUGAGGAUCACCCAUGUUUAUGGGCAG [Ex-6 Malc#13] (Eterna round: R96, puzzle: Exclusion 6)	–	–	–	apparent KD of MS2 coat protein [4]: 236 nM
UCAUACGGUGAGGAUAUCUCCACUAAAGUGUGUAGAGAAGGCGCUACAUGAGGAUCACCCAUGUUUAUGGGCAG [Ex-6 Malc#13] (puzzle: Exclusion 6)	109	–	–	apparent KD of MS2 coat protein [1]: 52 nM; apparent KD of MS2 coat protein [3]: 124 nM
UCAUGUCCUGAGGAUAUCAAAGUCCUCCCGACAUGAGAAGGCAGGACAUGAGGAUCACCCAUGUGGAGCAGGGA [Sorareardi] (Eterna round: R97, puzzle: Exclusion 6)	–	10.3	353	–
UCCAACCCUGUGAGGAUAUCGUCCAUUAUUUGUAACGAGAAGGCACAUGAGGAUCACCCAUGUUUUUUAUUUUU [JR_BMOE4_Sub080] (puzzle: Brourd's mod of Exclusion 4)	28	–	–	apparent KD of MS2 coat protein [1]: 83.7 nM; apparent KD of MS2 coat protein [3]: 22.5 nM
UCCAUCCCUGUGAGGAUAUCGUCCGUUUUUUGUUCCGAGAAGGCACAUGAGGAUCACCCAUGUUUUUUGUUUUU [JR_BMOE4_Sub077] (puzzle: Brourd's mod of Exclusion 4)	30.2	–	–	–
UCCUCACAUGAGGAUCACCCAUGUCAGGAUAUAAGAAACGCGGCAGGCAGCCGCAAAAUUAGAAGGGACAUUAA [EX1 A.27] (Eterna round: R97, puzzle: Exclusion 1)	–	47.5	18.2	–
UCCUCACCCAAGGAUAUCUGAGUCGGAACUAGCAGAGAAGGUGGCACAUGAGGAUCACCCAUGUAGACCAAUGC [Eternabot (L2) Solution 9] (Eterna round: R97, puzzle: Exclusion 6)	–	7.87	7.73	–
UCCUUACAUGAGGAUCACCCAUGUCAGGAUAUCUCCUCACUGCGCUUGCGCAGUGAAUAGAGAAGGGACGGGCU [JL ViennaUCT Aner mod 8] (puzzle: Exclusion 1)	32.4	–	–	apparent KD of MS2 coat protein [1]: 36.6 nM; apparent KD of MS2 coat protein [3]: 40.1 nM
UCCUUACAUGAGGAUCACCCAUGUGAGGAUAUGAGGGUUGAUUUAAAUGGGUUGAUUUUCAGAAGGCACAUGAA [JR_Ex1_Sub062] (Eterna round: R97, puzzle: Exclusion 1)	–	46.2	50.9	–
UCGACCGGAGGAUAUUACGUAAAGUACAUGAGGAUCACCCAUGUGUGGUACCUCGAGUCGUAAGAAGGCCGAAAUA [Teisor] (puzzle: Exclusion 5)	605	–	–	apparent KD of MS2 coat protein [1]: 283 nM; apparent KD of MS2 coat protein [3]: 505 nM
UCGAUGUGAGGAUAUAUUUUUUUUUUUCCUUAUGUUUUAUAACUUGAGGAUCACCCAAGUAGAAGGCGCUACGU [JR_Ex2_Sub063] (Eterna round: R97, puzzle: Exclusion 2)	–	70.6	136	–
UCGCUCCGUGUAGGAUAUCGCCGUACUAUUCGGCGAGAAGGACAUGAGGAUCACCCAUGUAUGUUAUUAUCACGCGUGGCGCAA [Design 59] (Eterna round: R96, puzzle: Exclusion NG 1)	–	20.3	16.9	apparent KD of MS2 coat protein [4]: 15.2 nM
UCGCUGCGAGGAUAUACAUGAGGAUCACCCAUGUACGGGUCCGGGUCUUCGUCCAUUGGUAGAAGGCGCAGUGA [JL Laongeedie mod 7] (puzzle: Exclusion 3)	22.5	–	–	–
UCGCUGCGAGGAUAUACAUGAGGAUCACCCAUGUACGGGUCCGGGUCUUUGUCGAUUGGUAGAAGGCGCAGUGA [JL Laongeedie mod 10] (puzzle: Exclusion 3)	50.3	–	–	–
UCGCUGCGAGGAUAUACAUGAGGAUCACCCAUGUGCGGGUCCGGGUCUUUGUCCAUUAGUAGAAGGCGCAGUGA [JL Laongeedie mod 5] (puzzle: Exclusion 3)	225	–	–	–
UCUCGACAUGAGGAUCACCCAUGUCAGGAUAUUGUAUUGGAGGUUUUUUACCUUAUGGCAAGAAGGGAUGUGUG [LRO-Excl1-24] (puzzle: Exclusion 1)	18.3	–	–	–
UCUCGCAGGCAAGGAUAUCCUACAUUGUUCUGGCCCGGGCAUGUUACAUGAGGAUCACCCAUGUGGGAGAAGGUGCGCCAGGGC [Design 34] (Eterna round: R96, puzzle: Exclusion NG 2)	–	30.6	30.6	apparent KD of MS2 coat protein [4]: 16.3 nM
UCUGCAACGCAAGGAUAUCUUAGAGUUGAAGAAAGAGAAGGUGCAGGUGAUAACAUGCCCGUAACAUGAGGAUCACCCAUGUAA [Eternabot solution 48] (Eterna round: R96, puzzle: Exclusion NG 1)	–	96.1	79.3	apparent KD of MS2 coat protein [4]: 68.3 nM
UCUGCCGCCGUGAGGAUAUGCCCGCGCGAACGCGGGCAGAAGGCACAUGAGGAUCACCCAUGUCCCGCGGUUUU [salish99_bmx4_r4_132] (Eterna round: R97, puzzle: Brourd's mod of Exclusion 4)	–	34.7	17.2	–
UCUGGUCGAGGAUAUACGUGAGGUGUUUCGGCACUAGGUCUACAUGAGGAUCACCCAUGUAGAAGGCGAUCAGA [EX2 #64] (Eterna round: R97, puzzle: Exclusion 2)	–	536	60.6	–
UCUGGUCGAGGAUAUAUAUGACGUGCUUCGGCACGAAGGUCACAUGAGGAUCACCCAUGUAGAAGGCGACCAGA [E2/9-A3] (Eterna round: R97, puzzle: Exclusion 2)	–	375	52.1	–
